We go through 30 sequences from the nanobody polyreactivity screen of Harvey et al. (2022).

A short description of the series: yeast display, Sf9 membrane polyspecificity reagent, FACS + sequencing; frameworks hold sequencing errors. The essentials: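 Nanobodies from a synthetic yeast display library (Saccharomyces cerevisiae BJ5465), induced 36–48 hours with galactose, were stained 1 hour at 4 °C with 10% biotinylated, detergent-solubilized Sf9 membrane reagent, enriched on streptavidin microbeads, then FACS-sorted. Anti-HA (expression) and streptavidin (reagent binding) fluorescence set low and high (top ~1%) gates. Polyreactivity labels come from the gate of origin. Genes were colony-PCR amplified, MiSeq 2 × 250 sequenced and filtered by CDR length.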
Regarding “QVQLVESGGGLVQAGGSLRLSCAASGLILYTYAMGWYRQAPGKERELVAALNSGGRTYSADSVKGRFTISRDNAKNTVYLQMNSLKPEDTAVYYCAADYGSRVRGFNYWGQGTQVTVSS”, the “polyreactivity (PSR sort gate)” value is reported as “low polyreactivity”.

Take “QVQLVESGGGLVQAGGSLRVSCAASGSTFPSNAMGWYRQAPGKERELVATITSAGGGTYYADSVKGRFTISRDNAKNSVYLQMNSLKAEDTAVYYCNADGPAGDAFDYWGPGTQVTVSS”: the “polyreactivity (PSR sort gate)” value was “low polyreactivity”.

For the sequence “QVQLVESGGGLVQAGGSLRLSCAASGSIFINYAMGWYRQAPGKERELVAAISKNGGNTYYADSVKGRFTISRDNAKNTVYLQMNSLKPEDTAVYYCNYDYWGQGTQVTVSS”, the “polyreactivity (PSR sort gate)” value is “low polyreactivity”. Turning to “QVQLVESGGGLVQAGGSLRLSCAASGRTFRYNTMGWYRQAPGKERELVAITYRGGSTYADSVKGRFTISRDNAKNTVYLQMNSLKPEDTAVYYCAKVVNWCRGYGGTDHYYWGQGTQVTVSS”, the “polyreactivity (PSR sort gate)” value was “high polyreactivity”.

For the sequence “QVQLVESGGGLVQAGGSLRLSCAASGRIFKFNAMGWYRQAPGKERELVAATWSGGRTSYADSVKGRFTISRDNAKNTVYLQMNSLKPEDTAVYYCNAADWIDVQYDYWGQGNQVTVSS”, the “polyreactivity (PSR sort gate)” value is reported as “low polyreactivity”. For the sequence “QVQLVVSGGGLVQAGGRLRLSCAATGSTFSVNAMGWSRQAPGKERELVAAITRSGGSTYYADSVKGRFTFSRDNAKNSVYLQLNSLKPEDTAVYYCAAEIYPLGEYWGQGTQVTVSS”, the “polyreactivity (PSR sort gate)” value is reported as “low polyreactivity”.

Turning to “QVQLVESGGGLVQAGGSLRLSCAASGGIFYPNVKGWYRQAPGKEREFVAAISSSSGSTYADSVKGRFTISRDNAKNTVYLQMNSLKPDDTAVFYCAAEENWWGIWVRYDYWVQGTQVTVSS”, the “polyreactivity (PSR sort gate)” value is given as “low polyreactivity”. To “QDQLVESGGGLLQAGGSLRLSCAASGIIFYPYAMGWYRQAPGKERELVAAITTRGRTYYADSVKGRFTISRDNAKNTVYLQLNSLKPEDTAVYYCNARRYFSRDSSGYNYWGQGTQVTVSS” belongs “high polyreactivity”.

For the sequence “QVQLVESGGGLVQAGGSLRLSCAASGRIFVGYAMGWYRQAPGKERELVAAINRSGSSKYYADSVKGRFTISRDNAKNTVYLQMNSLKTEDTAVYYCNARSGNRYGPRYDYWGQGTQVTVSS”, the “polyreactivity (PSR sort gate)” value is recorded as “high polyreactivity”.

In the case of “QDQLVESGGGLVQTGGSLRLSCASSGLIFTYYALGWYRQAPGTERELVAANRGSYSSTYYADSVKGRFTISRDNAKNTVYLHMNSLKPEDTAVYYCAAKYYWGQGTQVTVSS”, the “polyreactivity (PSR sort gate)” value is given as “high polyreactivity”. As to “QVQLVESGGGLVQAGGSLRLSCAASGSISFLYTMGWYRQAPGKERELVAAITGSTASTYYADSVKGRFTISSDYAKNTVYLQMKSLKPEDTAVYYCAAYWYAVGYWVSRDYWGQGTQVTVSS”, the “polyreactivity (PSR sort gate)” value is listed as “low polyreactivity”. To “QVQLVESGGGLVQAGGSLRLSCAASGSIFDSYAMGWYRQAPGKDRELVAAISGNSDSTYYADSVKGRFTISRDNATNTVYSQMNSLKAEDTAVYNCNARGRLPYLEFYYWGQGTQVTVSS” belongs “low polyreactivity”. Then “QVQLVESGGGLVQAGGSLRLSCAASGSTFWANAMGWYRPAPGKERELLAGITWNAGSTYYADSVKGRYTISRDNAKNNVYLQLNSLKPEDTAVYYCAAYYHFQGWGPGYNSCGQGTQVTVSS”, with “low polyreactivity”. To “QVQLVESGGGLVQAGGSLRLSCAASGRTFYGYALGWYRQAPGKERELVAAISDDASTYYADSVKGRFTISRDNAKNTVYLQMNSLKPEDTAVYYCAAEPEWPYGRFDYWGQGTQVTVSS” belongs “high polyreactivity”; to “QVQLVESGGGLVQAGGSLRLSCAASGRIFRINAMGWYRQAPGKERELVASITSRAGSTYYADSVKGRFTISRDNAKNTVYLQMNSLKPEDTAVYYCAARSVYTYYRLDYWGQGTQVTVSS”, “high polyreactivity”; to “QLQLVQSGGGLVQAGGSLRLSCAASGRIFFKYVKGWYRQAPGKERELVAAISSAGSTYYADSVKRRFTISRDNAKNTVYLQMNSLQPEDTAVYYCATYYSAINYGWSKTILYDYWGQGTQVTVSS”, “low polyreactivity”. Consider “QVQLVESGGGLVQAGGSLRLSCAASGSIFDVYTRGWYRQAPGKQRELVAAINTGGGSTYYADSEKGRFTISRDIAKNTVYLQMNSLKPEDTAVYYCAASVYHYGPLYYWGQVTQVTVSS”, for which the “polyreactivity (PSR sort gate)” value is reported as “low polyreactivity”. Then “QVQLVESGGGLVQAGGSLRLSCAASGFTFHFYAMGWYRQAPGKEREWVAAISWRGSSTYYADSVKGRFTISRDNAKNTVYLQMNSLKPEDTAVYYWNALYYYPYDYWGQGTQVTVSS”, with “high polyreactivity”; and “QDQLVESGGGLVQAGGSLRLSCAASGRTFIRNAMGWYRQAPGKERELVAAITNSGGSTYYADSVKGRFTISRDNAKNTVYLQMNSLNPEDTAVYDCNRVYRSHRPYTYPFSYDYWGQGTQVTVSS”, with “high polyreactivity”. As for “QVQLVESGGGLVQAGGSLRLSCAASGTFKYYAMGWYIQAPGEERELVAAISRGGRTNYADSVKGRFTISRDNAKNTVYLQMTSLKPEDTAVYYCAARKADTVFKFEYWGQGTQVTVSS”, the “polyreactivity (PSR sort gate)” value was “high polyreactivity”. Then “QVQLVESGGGLVQAGGSLRLSCAASGGISMDNVMGWYRQAPGKERELVAAISKSGGRTFYADSVKGRFTISRDNAKNTVYLQMNSLKPEDTAVYYCAKLYKSKPYWYEHEYWGQGTQVTVSS”, with “high polyreactivity”; and “QFQLVESGGGLVQAGCSLRLSCAAYGSIFGGYAMGWYRQAPGKERELVAAISYRGASTYYADSVKGRFTISRDNAKNTVYLQMNILKPEDTAVYYCAVPARTRARVLYGYDYWGQGTQVTVSS”, with “low polyreactivity”.

Turning to “QVQLVESGGGLVQAGGSLRLSCAASGSTFSYNAMGWYRQAPGKVRELVASINSRGGTTYYADSVKGRFTISRDNAKNTVYLQMNSLKPEDTAVYYCATDVYRLGEYDYWGQGTQVTVSS”, the “polyreactivity (PSR sort gate)” value is reported as “low polyreactivity”. “QVQLVESGGRLVQAGGSLRLSCAASGFIFRKYAMGWYRQAHGKVRELVAGIDWSGCRTYYADSVKGRFTISRDNAKNTVYLQMNSLKPEDTAVYYCNSVFRARPDYDYWGVGTQVTVSS”: the “polyreactivity (PSR sort gate)” value is on record as “high polyreactivity”. To “QVQIVESGGALVQAGGSLRFSCAASGSIFFSNTRGWYRQAPGKEREFVAAITWSTGNTYYADSVKGRFTISRDNAKNTVYLQMNSLKPEDTAVYYCYAEYLVITWYGGVEFDYWGQGTQVTVSS” belongs “low polyreactivity”; to “QDQLVESGGGLVQAGGSLRLSCAASGRTFPRNAMGWYRQAPGKERELVAAISSTGDSTYYADSVKGRFTISRDNAKNTVYLQMNSLKPEDTAVYYCHYPYDYWGQGTQVTVSS”, “low polyreactivity”. Consider “QGQLVESGGGLVQAGGRLRLSCAASGSIFRAYAMGWYRQAPGKERELVADISRSGGSTYYADSVKGRFTISRDNAKNTVYLQMNSLKPEDTAVYYCYAPVGWSVEARVSRGYEDQYDYWGQGSQVTVSS”, for which the “polyreactivity (PSR sort gate)” value was “low polyreactivity”. Then “QVQLVESGGGLVQAGGSLRLSCAASGSIIGVNAMGWYRQAPGKERELVAAMSSTGGSTYYADSVKGRFSISRDNAKNTVFLQMNRLKPEDTAVYYCHTDYSKSIGDGYAGFDYWGQGTQVTVSS”, with “low polyreactivity”; and “QVQLLESGGGLVQAGGSLRLSCAASGRIFPRYAMGWYRQAPGKERELVASITRRGGSTYYADSVKGRFTISRDNAKNTVYLQMNSLKPEDTAVYYCNALPRAQSYELYNYWGQGTQVTVSS”, with “high polyreactivity”. To “QVHLVESGGGLVQAGGSLRLSCAASGIIFRHKAMLWYRQAPGKERELVAAISSGGNTYYADSVKGRFTISRDNAKNTVYLLMNSLKPEDTAVYYFADDVQDRYHRAWYDSWGQGRQVTVSS” belongs “low polyreactivity”.
